{"source": "patent US20080318297A1", "about": "“Inhibition of Infiltration, and Cell Killing Agent” (priority 2004, published 2008)", "key": {"CD43 antigen": {"test_system": "CD43 antigen", "test": "CD43 antigen expression in NALL1 cells by flow cytometer (MEM59 antibody)", "assay_type": "cell-based, human", "conditions": "for CD43 expression: siRNA introduced by lentivirus pLL3.7 vector, GFP positive fraction, vs vacant vector", "from_the_text": "These siRNAs were expressed in cells to confirm the effects. For introduction of siRNA into cells, a lentivirus system (product of Invitrogen Corporation) which is able to gene introduction into blood cells at high efficiency and an expression vector for lentivirus pLL3.7 (Nat. Genet., 33, 401-406 (2003)) were used. In the pLL3.7 vector, it is possible to introduce a sense/antisense siRNA sequence including a hair-pin structure downstream of a U6 promoter. The pLL3.7 vector expresses Green Fluorescent Protein (GFP) by a CMV promoter at the same time. Accordingly, oligonucleotide including the sense chain, antisense chain, and hair-pin structure of the designed siRNA sequence (CD43-#1 to #5, CD43-$1 to $5; alphabet f at the end of the name indicates the sense chain, and r indicates the antisense chain) was chemically synthesized and then cloned to pLL3.7 vector, followed by introduction into 293 cells together with a vector for virus particle production. After that, siRNA expression lentivirus vector was collected from a supernatant of the culture medium (FIG. 8). Virus infection was caused by co-culture of the virus particles and NALL1 cells to introduce the siRNA into the cells and the siRNA is expressed. GFP was simultaneously expressed in the cells into which the siRNA was introduced by the pLL3.7 vector. Therefore, expression of the CD43 antigen and sialyl Lewis x and the selectin binding ability of the cells in which the GFP expression was observed, i.e. of the cells in which siRNA was expressed, were analyzed by using the antibody MEM59 (product of Monosan) for CD43, sialyl Lewis x antibody CSLEX1, and human chimera-Fc-Ig-E- or P-selectin with the use of a flow cytometer. As a result, in introduction of vacant vector (pLL3.7), a high rate of the CD43 expression was observed irrelevant from GFP positive or negative.\nBenzyl-α-N-acetylgalactosamine (Bz-α-GalNAc; product of Sigma-Aldrich Japan, K.K.) which is one of sugar chain synthesis inhibiting agents was added to a culture supernatant of NALL1 cells to detect its binding ability to selectin. Benzyl-α-N-acetylgalactosamine is subject to sugar chain modification like N-acetylgalactosamine added to serine and threonine of a protein when taken into a cell. Therefore, since the original sugar chain modification to a glycoprotein is suppressed by an addition of an excessive amount of benzyl-α-N-acetylgalactosamine, benzyl-α-N-acetylgalactosamine is used as an O-linked sugar chain synthesis inhibiting agent. After adding 4 mM of benzyl-α-N-acetylgalactosamine to the culture supernatant of NALL1 cells, expressions of the CD43 antigen and sialyl Lewis x and binding ability to E- and P-selectin were detected by a flow cytometer after 3 day-culture. […]"}, "sialyl Lewis x": {"test_system": "sialyl Lewis x", "test": "Sialyl Lewis x expression in NALL1 cells by flow cytometer (CSLEX1 antibody)", "assay_type": "cell-based, human", "from_the_text": "Fluorescence intensity and distribution of cell count of a sialyl Lewis x sugar chain antigen which is a major selectin ligand sugar chain were confirmed in flow cytometer by using a CSLEX antibody (antibody specifically recognizing the sialyl Lewis x structure; product of Becton, Dickinson and Company) to which a tandem dye APC-Cy7 was bound in accordance with a method described in J. Biol. Chem., 273, 41, 26779-26789 (1998). Rightward shifting in the histogram means an increase in the fluorescence intensity, i.e. an amount of expression of sialyl Lewis x.\nThese siRNAs were expressed in cells to confirm the effects. For introduction of siRNA into cells, a lentivirus system (product of Invitrogen Corporation) which is able to gene introduction into blood cells at high efficiency and an expression vector for lentivirus pLL3.7 (Nat. Genet., 33, 401-406 (2003)) were used. In the pLL3.7 vector, it is possible to introduce a sense/antisense siRNA sequence including a hair-pin structure downstream of a U6 promoter. […] Therefore, expression of the CD43 antigen and sialyl Lewis x and the selectin binding ability of the cells in which the GFP expression was observed, i.e. of the cells in which siRNA was expressed, were analyzed by using the antibody MEM59 (product of Monosan) for CD43, sialyl Lewis x antibody CSLEX1, and human chimera-Fc-Ig-E- or P-selectin with the use of a flow cytometer. […]"}, "P-selectin": {"test_system": "P-selectin", "test": "P-selectin binding ability of NALL1 cells by flow cytometer (human chimera-Fc-Ig-P-selectin)", "assay_type": "cell-based", "from_the_text": "(§1) Likewise, a binding ability to E-selectin and P-selectin was confirmed in flow cytometer through fluorescence intensity and distribution of cell count measured by using a recombinant protein (human chimera-Fc-Ig-E-selectin or human chimera-Fc-Ig-P-selectin; product of R & D Systems) in accordance with the method descried in Blood, 104, 3091-3096 (2004). […] Rightward shifting in the histogram means an increase in the fluorescence intensity, i.e. binding ability to selectin.\n(§2) These siRNAs were expressed in cells to confirm the effects. […] Therefore, expression of the CD43 antigen and sialyl Lewis x and the selectin binding ability of the cells in which the GFP expression was observed, i.e. of the cells in which siRNA was expressed, were analyzed by using the antibody MEM59 (product of Monosan) for CD43, sialyl Lewis x antibody CSLEX1, and human chimera-Fc-Ig-E- or P-selectin with the use of a flow cytometer. […]\n(§3) Benzyl-α-N-acetylgalactosamine (Bz-α-GalNAc; product of Sigma-Aldrich Japan, K.K.) which is one of sugar chain synthesis inhibiting agents was added to a culture supernatant of NALL1 cells to detect its binding ability to selectin. […] After adding 4 mM of benzyl-α-N-acetylgalactosamine to the culture supernatant of NALL1 cells, expressions of the CD43 antigen and sialyl Lewis x and binding ability to E- and P-selectin were detected by a flow cytometer after 3 day-culture. […]"}, "E-selectin": {"test_system": "E-selectin", "test": "E-selectin binding ability of NALL1 cells by flow cytometer (human chimera-Fc-Ig-E-selectin)", "assay_type": "cell-based", "from_the_text": "as §1, §2, §3"}, "[1]": {"conditions": "siRNA introduced by lentivirus pLL3.7 vector (FIG. 10)"}}}
{"molecule": "CC(=O)N[C@H]1[C@@H](OCc2ccccc2)O[C@H](CO)[C@H](O)[C@@H]1O", "note": "[benzyl-α-N-acetylgalactosamine, Benzyl-α-N-acetylgalactosamine, reference compound]", "values": [{"measurement": "expression of CD43 antigen", "setting": "CD43 antigen; 4 mM, 3 day-culture", "value": "no change"}, {"measurement": "sialyl Lewis x expression", "setting": "sialyl Lewis x; 4 mM, 3 day-culture", "value": "remarkably reduced"}, {"measurement": "selectin binding ability (P-selectin)", "setting": "P-selectin; 4 mM, 3 day-culture", "value": "almost lost"}, {"measurement": "selectin binding ability (E-selectin)", "setting": "E-selectin; 4 mM, 3 day-culture", "value": "almost lost"}]}
{"molecule": "siCD43-#5-pLL3.7: siRNA for CD43 antigen in pLL3.7 lentivirus vector; CD43 sequence gcgtaacggggtggtggac (nucleic acid, shRNA oligos cloned in pLL3.7 lentivector) sense: TGCGTAACGGGGTGGTGGACTTCAAGAGAGTCCACCACCCCGTTACGCTTTTTTC antisense: TCGAGAAAAAAGCGTAACGGGGTGGTGGACTCTCTTGAAGTCCACCACCCCGTTACGCA", "values": [{"measurement": "CD43 expression", "setting": "CD43 antigen", "value": "significant reduction"}]}
{"molecule": "siCD43-#2-pLL3.7: siRNA for CD43 antigen in pLL3.7 lentivirus vector; CD43 sequence ggccgacagcactggggac (nucleic acid, shRNA oligos cloned in pLL3.7 lentivector) sense: TGGCCGACAGCACTGGGGACTTCAAGAGAGTCCCCAGTGCTGTCGGCCTTTTTTC antisense: TCGAGAAAAAAGGCCGACAGCACTGGGGACTCTCTTGAAGTCCCCAGTGCTGTCGGCCA", "values": [{"measurement": "CD43 expression", "setting": "CD43 antigen", "value": "significant reduction"}, {"measurement": "sialyl Lewis x expression", "setting": "sialyl Lewis x; [1]", "value": "remarkable reductions"}, {"measurement": "selectin binding ability (P-selectin)", "setting": "P-selectin; [1]", "value": "remarkable reductions"}, {"measurement": "selectin binding ability (E-selectin)", "setting": "E-selectin; [1]", "value": "remarkable reductions"}]}
{"molecule": "siCD43-#1-pLL3.7: siRNA for CD43 antigen in pLL3.7 lentivirus vector; CD43 sequence gtgaccctaaggccgacag (nucleic acid, shRNA oligos cloned in pLL3.7 lentivector) sense: TGTGACCCTAAGGCCGACAGTTCAAGAGACTGTCGGCCTTAGGGTCACTTTTTTC antisense: TCGAGAAAAAAGTGACCCTAAGGCCGACAGTCTCTTGAACTGTCGGCCTTAGGGTCACA", "values": [{"measurement": "CD43 expression", "setting": "CD43 antigen", "value": "significant reduction"}]}
